Consider one molecule from US20030165887A1 (BURNHAM INSTITUTE, published 2003).

One experiment concerns the target T1, Apaf1 (human, UniProt O14727 1-1248).
T1 sequence: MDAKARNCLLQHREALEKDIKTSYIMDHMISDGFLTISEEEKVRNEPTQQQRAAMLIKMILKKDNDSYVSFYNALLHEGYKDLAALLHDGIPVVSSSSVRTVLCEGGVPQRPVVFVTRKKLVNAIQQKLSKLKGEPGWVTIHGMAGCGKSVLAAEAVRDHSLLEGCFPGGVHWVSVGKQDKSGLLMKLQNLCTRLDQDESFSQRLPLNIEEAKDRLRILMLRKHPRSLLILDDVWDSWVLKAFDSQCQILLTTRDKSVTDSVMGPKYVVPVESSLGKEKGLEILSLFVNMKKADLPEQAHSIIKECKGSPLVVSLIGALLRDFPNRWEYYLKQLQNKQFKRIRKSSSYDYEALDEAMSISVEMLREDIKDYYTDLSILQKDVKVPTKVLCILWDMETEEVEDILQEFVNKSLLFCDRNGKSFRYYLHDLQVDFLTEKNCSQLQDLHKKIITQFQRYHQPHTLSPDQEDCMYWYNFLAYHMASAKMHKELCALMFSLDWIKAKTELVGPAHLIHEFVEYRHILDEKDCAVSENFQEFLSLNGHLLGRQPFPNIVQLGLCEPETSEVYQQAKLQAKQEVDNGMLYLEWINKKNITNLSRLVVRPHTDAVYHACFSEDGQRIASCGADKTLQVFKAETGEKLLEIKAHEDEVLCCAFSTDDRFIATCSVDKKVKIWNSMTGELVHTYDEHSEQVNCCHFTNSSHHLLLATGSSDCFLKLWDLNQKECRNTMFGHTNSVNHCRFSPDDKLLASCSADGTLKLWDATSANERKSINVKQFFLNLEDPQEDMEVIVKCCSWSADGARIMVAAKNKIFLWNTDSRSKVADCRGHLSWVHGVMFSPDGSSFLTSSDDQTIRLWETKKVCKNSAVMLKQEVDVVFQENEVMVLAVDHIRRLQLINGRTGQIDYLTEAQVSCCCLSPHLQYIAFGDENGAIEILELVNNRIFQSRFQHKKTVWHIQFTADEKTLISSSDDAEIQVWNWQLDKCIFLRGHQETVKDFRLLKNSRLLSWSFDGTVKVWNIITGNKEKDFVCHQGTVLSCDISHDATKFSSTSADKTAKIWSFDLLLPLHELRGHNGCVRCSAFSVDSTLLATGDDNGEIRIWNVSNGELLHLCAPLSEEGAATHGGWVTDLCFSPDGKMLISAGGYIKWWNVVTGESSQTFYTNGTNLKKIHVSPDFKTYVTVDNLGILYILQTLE
The experiment can be described thus: co-immunoprecipitation, transfected HEK293T cells, SDS-PAGE/immunoblot.

The target in the next experiment is T2, Nod1 (CARD4) (UniProt Q9Y239 1-953, limits assumed).
T2 construct: also called Nodl
T2 sequence (looked up): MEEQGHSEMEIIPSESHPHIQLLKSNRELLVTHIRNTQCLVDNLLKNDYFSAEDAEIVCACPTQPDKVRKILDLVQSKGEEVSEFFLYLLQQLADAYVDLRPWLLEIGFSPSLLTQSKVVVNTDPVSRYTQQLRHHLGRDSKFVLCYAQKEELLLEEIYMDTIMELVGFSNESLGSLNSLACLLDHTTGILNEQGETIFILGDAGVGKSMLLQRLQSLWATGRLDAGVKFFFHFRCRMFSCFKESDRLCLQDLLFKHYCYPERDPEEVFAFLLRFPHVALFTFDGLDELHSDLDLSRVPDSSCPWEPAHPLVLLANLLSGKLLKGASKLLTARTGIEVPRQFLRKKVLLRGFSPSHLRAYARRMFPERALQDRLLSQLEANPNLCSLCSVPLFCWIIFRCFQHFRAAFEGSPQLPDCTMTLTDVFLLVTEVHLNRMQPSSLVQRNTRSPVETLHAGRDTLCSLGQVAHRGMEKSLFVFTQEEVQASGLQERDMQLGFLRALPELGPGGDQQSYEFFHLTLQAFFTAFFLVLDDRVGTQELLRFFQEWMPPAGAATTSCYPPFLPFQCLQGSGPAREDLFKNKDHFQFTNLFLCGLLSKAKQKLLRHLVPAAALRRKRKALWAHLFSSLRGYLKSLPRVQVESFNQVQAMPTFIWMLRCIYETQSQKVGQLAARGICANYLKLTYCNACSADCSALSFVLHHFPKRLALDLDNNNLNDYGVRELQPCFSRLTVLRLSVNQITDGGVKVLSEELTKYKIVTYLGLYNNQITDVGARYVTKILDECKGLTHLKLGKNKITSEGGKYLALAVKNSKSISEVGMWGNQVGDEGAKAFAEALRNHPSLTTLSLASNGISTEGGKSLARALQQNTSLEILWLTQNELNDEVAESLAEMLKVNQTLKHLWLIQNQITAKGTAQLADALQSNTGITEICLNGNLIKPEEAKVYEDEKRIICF
Described as above.

Experimental for Apaf1: (§1) The TUCAN polypeptides were expressed by transient transfection in HEK293T cells together with epitope-tagged pro-caspase-9 or other proteins. […] Cell lysates were prepared from transfected cells and immunoprecipitations were performed using anti-Flag or anti-Myc antibodies, followed by SDS-PAGE/immunoblot analysis.
Experimental for Nod1 (CARD4): as §1

B1: TUCAN (Tumor Up-regulated CARD-containing Antagonist of Caspase Nine), full-length (other)
chain: MMRQRQSHYCSVLFLSVNYLGGTFPGDICSEENQIVSSYASKVCFEIEEDYKNRQFLGPEGNVDVELIDKSTNRYSVWFPTAGWYLWSATGLGFLVRDEVTVTIAFGSWSQHLALDLQHHEQWLVGGPLFDVTAEPEEAVAEIHLPHFISLQGEVDVSWFLVAHFKNEGMVLEHPARVEPFYAVLESPSFSLMGILLRIASGTRLSIPITSNTLIYYHPHPEDIKFHLYLVPSDALLTKAIDDEEDRFHGVRLQTSPPMEPLNFGSSYIVSNSANLKVMPKELKLSYRSPGEIQHFSKFYAGQMKEPIQLEITEKRHGTLVWDTEVKPVDLQLVAASAPPPFSGAAFVKENHRQLQARMGDLKGVLDDLQDNEVLTENEKELVEQEKTRQSKNEALLSMVEKKGDLALDVLFRSISERDPYLVSYLRQQNL
notes: Full-length TUCAN expressed by transient transfection in HEK293T cells; also called full-length TUCAN; CARD-X
Turning to B1, the binding result with Apaf1 and in the experiment with Nod1 (CARD4) was “no binding” each time.
